Reference: patent US20230203469A1

Tests used:
[1] = molecular target: T1, FRETS-VWF73 substrate, P04275
T1 chain: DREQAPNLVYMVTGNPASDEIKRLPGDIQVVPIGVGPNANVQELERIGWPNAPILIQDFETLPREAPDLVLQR

[2] = molecular target: recombinant VWF (full-length, multimeric rVWF), P04275

B1: Q97 ADAMTS13 (wildtype recombinant ADAMTS13) (protein)
chain: AAGGILHLELLVAVGPDVFQAHQEDTERYVLTNLNIGAELLRDPSLGAQFRVHLVKMVILTEPEGAPNITANLTSSLLSVCGWSQTINPEDDTDPGHADLVLYITRFDLELPDGNRQVRGVTQLGGACSPTWSCLITEDTGFDLGVTIAHEIGHSFGLEHDGAPGSGCGPSGHVMASDGAAPRAGLAWSPCSRRQLLSLLSAGRARCVWDPPRPQPGSAGHPPDAQPGLYYSANEQCRVAFGPKAVACTFAREHLDMCQALSCHTDPLDQSSCSRLLVPLLDGTECGVEKWCSKGRCRSLVELTPIAAVHGRWSSWGPRSPCSRSCGGGVVTRRRQCNNPRPAFGGRACVGADLQAEMCNTQACEKTQLEFMSQQCARTDGQPLRSSPGGASFYHWGAAVPHSQGDALCRHMCRAIGESFIMKRGDSFLDGTRCMPSGPREDGTLSLCVSGSCRTFGCDGRMDSQQVWDRCQVCGGDNSTCSPRKGSFTAGRAREYVTFLTVTPNLTSVYIANHRPLFTHLAVRIGGRYVVAGKMSISPNTTYPSLLEDGRVEYRVALTEDRLPRLEEIRIWGPLQEDADIQVYRRYGEEYGNLTRPDITFTYFQPKPRQAWVWAAVRGPCSVSCGAGLRWVNYSCLDQARKELVETVQCQGSQQPPAWPEACVLEPCPPYWAVGDFGPCSASCGGGLRERPVRCVEAQGSLLKTLPPARCRAGAQQPAVALETCNPQPCPARWEVSEPSSCTSAGGAGLALENETCVPGADGLEAPVTEGPGSVDEKLPAPEPCVGMSCPPGWGHLDATSAGEKAPSPWGSIRTGAQAAHVWTPAAGSCSVSCGRGLMELRFLCMDSALRVPVQEELCGLASKPGSRREVCQAVPCPARWQYKLAACSVSCGRGVVRRILYCARAHGEDDGEEILLDTQCQGLPRPEPQEACSLEPCPPRWKVMSLGPCSASCGLGTARRSVACVQLDQGQDVEVDEAACAALVRPEASVPCLIADCTYRWHVGTWMECSVSCGDGIQRRRDTCLGPQAQAPVPADFCQHLPKPVTVRGCWAGPCVGQGTPSLVPHEEAAAPGRTTATPAGASLEWSQARGLLFSPAPQPRRLLPGPQENSVQSSACGRQHLEPTGTIDMRGPGQADCAVAIGRPLGEVVTLRVLESSLNCSAGDMLLLWGRLTWRKMCRKLLDMTFSSKTNTLVVRQRCGRPGGGVLLRYGSQLAPETFYRECDMQLFGPWGEIVSPSLSPATSNAGGCRLFINVAPHARIAIHALATNMGAGTEGANASYILIRDTHSLRTTAFHGQQVLYWESESSQAEMEFSEGFLKAQASLRGQYWTLQSWVPEMQDPQSWKGKEGT
Specific rADAMTS13 activity (activity per total protein by UV) [1]: 1750 IU/mg | rADAMTS13 Activity (FRETS VWF73) [1]: 2210 IU/mL | Degradation of full-length rVWF under denaturing conditions (VWF multimer analysis) [2]: Comparable
